Reference: patent publication US20180128830A1, “DETECTION OF HUMAN CYTOMEGALOVIRUS IN BREAST CANCER” (priority 2015, published 2018)

B1: cmvIL-10 (protein)
chain: ATTTTIKNTKPQCRPEDYATRLQDLRVTFHRVKPTLQREDDYSVWLDGTVVKGCWGCSVMDWLLRRYLEIVFPAGDHVYPGLKTELHSMRSTLESIYKDMRQCPLLGCGDKSVISRLSQEAERKSDNGTRKGLSELDTLFSRLEEYLHSRK

Columns and labels:
Format in all cases: cell-based, human
[1] = tested on: MDA-MB-231 cells; test: Standard cell counts (hemacytometer); conditions: 100 ng/ml, 6-well dishes
Procedure: Cells were seeded into 96-well dishes at a density of 1×10^4 cell per well in complete medium with varying doses of cmvIL-10, and then cell viability measured at the indicated time points using the Cell Titer Glo Assay kit according to manufacturer's instructions (Promega). DNA synthesis was measured in cells prepared in the same way using the BrdU Cell Proliferation ELISA Kit (Roche, Basel, Switzerland). For experiments using inhibitors, cells were cultivated in 96-well dishes as above with a final concentration of 10 μM inhibitor and BrdU incorporation evaluated after 72 hrs. For cell counts, cells were seeded into 6-well plates at a density of 2×10^5 cells per well, harvested via trypsinization, and counted using a hemacytometer at the indicated time points. The TACS Annexin V-FITC Detection Kit (Trevigen, Gaithersburg, Md.) was used to stain cells harvested from 70% confluent T75 flasks that had been treated with 100 μM etoposide for 48 hrs in the presence or absence of 100 ng/ml cmvIL-10. Cells were then analyzed via flow cytometry to detect fluorescence. For viability assays, Cell Titer Glo reagent was utilized to quantify cells that had been seeded into 96-well dishes at a density of 1×10^4 cell per well in complete medium with varying doses of etoposide in the presence or absence of 100 ng/ml cmvIL-10 as indicated

[2] = tested on: MDA-MB-231 cells; test: Migration assay toward EGF (modified Boyden chamber); conditions: 5 hrs; for cell movement toward cytokine alone: no EGF
Procedure: Cells were harvested and resuspended at a density of 2×10^6 cells per ml in complete medium. A total volume of 0.1 ml cell suspension (2×10^5 cells) was placed in the upper chamber of a ThinCert filter with 8 μm pores in a 24-well plate (Greiner Bio-One North America, Monroe, Calif.). […] Medium from the lower chamber was collected, used to rinse the bottom of the filter twice, and then centrifuged at 1000 rpm for 10 min. The cell pellet was resuspended in 0.1 ml media and transferred to a white 96-well plate. Viable cell number was quantified using the Cell Titer Glo Assay kit according to the manufacturer's protocol.

[3] = tested on: PAI-1; test: PAI-1 ELISA on culture supernatants; conditions: 10 ng/ml; for PAI-1 production: after 24 hours, maintained over 72 hours
Procedure: (§1) DuoSet ELISA kits (R&D Systems) were used to quantify uPAR, PAI-1, and MMP-3. For uPAR and PAI-1 measurement, MDA cells were seeded in triplicate in 96-well plate at 5.0×10^4 cell/mL density with complete L-15 media and treated with 10 ng/mL of either cmvIL-10 or hIL-10 for the indicated times and supernatants were collected daily. The ELISA was carried out on supernatants according to manufacturer's instructions using and following the addition of substrate and stop solution, absorbance of the plate was measured at 450 nm using a Dynex Opsys MR microplate reader. Sample concentrations were interpolated from a standard curve using linear regression analysis. For cell-associated MMP-3, MDA cells were seeded in 96-well plates and treated with cmvIL-10 as above. Cells were treated with cell lysis buffer (150 mM NaCl, 20 mM HEPES, 0.5% Triton-X-100, 1.0 mM NaOV4, 1.0 mM EDTA, 0.1% NaN3) supplemented with 1× protease inhibitors (Calbiochem, EMD Chemicals, San Diego Calif.) and were collected daily for the indicated time points. The lysates were evaluated for MMP-3 according to the manufacturer's instructions (R&D Systems).

[4] = tested on: uPAR; test: uPAR ELISA on culture supernatants; conditions: 10 ng/ml
Procedure: as §1

[5] = tested on: Stat3; test: Western blot for Stat3 phosphorylation in MDA-MB-231 cells; conditions: 100 ng/ml, 15 min
Procedure: For western blotting, cells were treated with 100 ng/ml cmvIL-10, hIL-10, IFNγ or PBS for 15 min, then harvested into cell lysis buffer (150 mM NaCl, 20 mM HEPES, 0.5% Triton-X-100, 1 mM NaOV4, 1 mM EDTA, 0.1% NaN3). Lysates were clarified, proteins were separated via SDS-PAGE, and then transferred to a nitrocellulose membrane. Then membrane was incubated in blocking solution (5% milk+1×TBS-T) for 1 hr, then probed with primary antibody at a 1:1000 dilution (total Stat3 or pStat3, total Stat1 or pStat1) in blocking solution overnight at 4° C. After washing, the membranes were incubated with a 1:2000 dilution of appropriate AP-conjugated secondary antibody and bands were detected using Western Blue stabilized AP substrate (Promega, Madison, Wis.). For analysis of secreted proteins, supernatants were collected at various time points, analyzed by SDS-PAGE and then immunoblotted as above for cmvIL-10, hIL-10, or serpin E1/PAI.

Molecule | cell numbers [1] | cell movement toward cytokine alone [2] | PAI-1 production [3] | uPAR protein levels [4] | 83 kD band of phosphorylated Stat3 (pStat3) [5] | migration response toward EGF with cytokine in lower chamber ([2]; 100 ng/ml cytokine plus EGF) | PAI-1 protein secreted ([3]; 12 hours)
hIL-10: purified recombinant human interleukin-10 from R&D Systems | higher cell numbers than control cultures | failed to stimulate cell movement | significant increase in PAI-1 production | elevated | detected |  | 
B1 | higher cell numbers than control cultures | did not stimulate cell movement | significant increase in PAI-1 production | elevated | detected | significantly increased | significantly increased
